In paper PMC8440498:

Target: Aβ1-40 (human)
Experiment: ELISA

Substance: clusterin (human plasma apolipoprotein J) (from UniProt P10909 23-227; P10909 228-449) (natural protein)
- Kd: 2 nM
